# Positions count from the first letter of the chain named. In names and notes the source's numbering stands.
# B1: Anti-C1s antibody hz2-8 (H1L2 G80A/T82A) (antibody, V domains shown)
# VH: QVQLVQSGAEVKKPGASVKVSCKASGFNIKEYYMHWVRQAPEQGLEWMGWIDPENADAIYAQKFQGRVTITADTSTNTAYMELSSLRSEDTAVYYCARSRLFFAYWGQGTLVTVSS
# VL: DIQMTQSPKSLSASVGDRVTITCRASQDVRTALDWYQQKPGQSPKLLIYSASYRYSGVPSRFSGSGSGTDFTLTISSLQPEDFATYYCQQQYTTPYTFGQGTKLEIKR
# notes: Humanized variant with G80A and T82A in HC CDR2 (already in the entry), human IgG1 / kappa
# Experiments:
# [1] = target: T1, human C1s mutant M9 (K336G, D343Y & E351A) (human, UniProt P09871 16-688); assay: ELISA, plate coated with human C1s mutant M9: K336G, D343Y, E351A, OD450nm
# T1 construct: The entry is the mutant itself
# T1 sequence: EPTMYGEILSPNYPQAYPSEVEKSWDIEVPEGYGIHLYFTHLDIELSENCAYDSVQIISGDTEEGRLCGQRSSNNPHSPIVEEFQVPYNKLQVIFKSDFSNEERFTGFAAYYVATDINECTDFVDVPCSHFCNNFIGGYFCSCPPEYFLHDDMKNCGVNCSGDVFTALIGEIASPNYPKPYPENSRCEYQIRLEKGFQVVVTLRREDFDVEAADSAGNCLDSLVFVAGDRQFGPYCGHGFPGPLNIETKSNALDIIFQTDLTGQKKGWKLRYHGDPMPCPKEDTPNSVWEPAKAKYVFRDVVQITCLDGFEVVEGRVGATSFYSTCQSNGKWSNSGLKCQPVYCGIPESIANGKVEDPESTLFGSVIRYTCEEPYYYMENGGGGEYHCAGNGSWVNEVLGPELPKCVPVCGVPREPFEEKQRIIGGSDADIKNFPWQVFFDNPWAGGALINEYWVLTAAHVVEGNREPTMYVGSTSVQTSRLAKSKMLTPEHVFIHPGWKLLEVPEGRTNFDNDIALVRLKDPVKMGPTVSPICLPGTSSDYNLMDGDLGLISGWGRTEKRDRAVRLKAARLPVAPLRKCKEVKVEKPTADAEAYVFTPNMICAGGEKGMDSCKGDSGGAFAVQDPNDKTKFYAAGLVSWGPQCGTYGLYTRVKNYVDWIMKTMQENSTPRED
# Procedure: (§1) ELISA was carried out by first coating 96-well plates with 200 ng/well of full-length or truncated C1s proteins overnight. The next morning, plates were blocked with SuperBlock T20 blocking buffer (Thermo Scientific 37536) for 1 h with gentle shaking. Then, various concentrations of anti-C1s antibodies diluted in SuperBlock T20 blocking buffer were added to the plates and incubated for 1 h with gentle shaking. Mouse IgG (Sigma-Aldrich 15381) and human IgG1 (BioXCell BP0297) were used as negative controls. The plates were washed before incubating with HRP conjugated secondary antibodies diluted in SuperBlock T20 blocking buffer (goat anti-mouse IgG (H+L) cross-adsorbed secondary antibody HRP (Invitrogen G-21040) or goat anti-human IgG antibody, HRP conjugate (Millipore AP309P)) for 1 h with gentle shaking. At last, the plates were washed and color developed with ELISA liquid HRP substrate (Sigma-Aldrich), followed by stopping the reaction with addition of 1M H₂SO₄ in the same volume as the ELISA liquid substrate. Bound antibody was measured by absorbance at OD₄₅₀ₙₘ.
# (§2) Binding of anti-C1s antibodies to mutants M1-M20 of human C1s was measured by ELISA as described in Example 4, and results are shown in FIGS. 6B-6U. […]
# [2] = target: T2, human C1s mutant M5 (K336G) (human, UniProt P09871 16-688); assay: ELISA, plate coated with human C1s mutant M5: K336G, OD450nm; curve still rising at 1000 ng/ml, no upper plateau in the range
# T2 construct: The entry is the mutant itself
# T2 sequence: T1 sequence with Y343D, A351E
# Procedure: as §1, §2
binder,measurement,setting,value
B1,binding result,[1],no binding (tested: 1000 ng/ml (Log 3))
same,EC50,[2],0.468 µg/mL

# Source: patent US20230051715A1 (MABWELL THERAPEUTICS, published 2023)
